# Test system: Escherichia coli TOP10
# Assay: shrunken log2 fold change of peptide-encoding DNA abundance (4.5 h post-induction vs induction); higher = less antimicrobial activity (less host growth inhibition)
# Conditions: time post-induction: 4.5 h; library: site-saturation at positions 5, 18, 19, 20
# 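Further: peptides expressed intracellularly from a pBAD plasmid library in pooled LB shake-flask culture, induced with 0.3% L-arabinose, DNA abundance read by NGS, three biological replicates, DESeq2 with apeglm shrinkage.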
row,Sequence,shrunken log2 fold change
1,RRIRQRPPRLPRPRPRPNTYPRP,-1.07
2,RRIRRRPPRLPRPRPRPCAMPRP,-0.0039
3,RRIRGRPPRLPRPRPRPYVRPRP,-0.51
4,RRIRLRPPRLPRPRPRPHAVPRP,0.0578
5,RRIRWRPPRLPRPRPRPHAYPRP,-0.349
6,RRIRSRPPRLPRPRPRPENCPRP,0.00362
7,RRIRDRPPRLPRPRPRPHFTPRP,-0.307
8,RRIRNRPPRLPRPRPRPFFIPRP,-0.586
9,RRIRLRPPRLPRPRPRPCQHPRP,-0.382
10,RRIRYRPPRLPRPRPRPDFTPRP,-0.0212
11,RRIRDRPPRLPRPRPRPHLRPRP,-0.00431
12,RRIRPRPPRLPRPRPRPMDNPRP,-0.683
13,RRIRLRPPRLPRPRPRPPVGPRP,1.42
14,RRIRTRPPRLPRPRPRPKTKPRP,-0.212
15,RRIRHRPPRLPRPRPRPYCVPRP,-0.154
16,RRIRWRPPRLPRPRPRPADWPRP,0.345
17,RRIRERPPRLPRPRPRPTYHPRP,-0.407
18,RRIRFRPPRLPRPRPRPYWGPRP,-0.186
19,RRIRLRPPRLPRPRPRPSDLPRP,-0.163
20,RRIRGRPPRLPRPRPRPFNWPRP,0.153
21,RRIRHRPPRLPRPRPRPTIDPRP,-0.252
22,RRIRSRPPRLPRPRPRPQWAPRP,0.0253

row,Sequence,shrunken log2 fold change
1,RRIRSRPPRLPRPRPRPCGSPRP,0.102
2,RRIRDRPPRLPRPRPRPFMHPRP,-0.148
3,RRIRFRPPRLPRPRPRPYHFPRP,-0.194
4,RRIRERPPRLPRPRPRPPNIPRP,-0.207
5,RRIRCRPPRLPRPRPRPHYQPRP,-1.29
6,RRIRYRPPRLPRPRPRPATRPRP,0.098
7,RRIRIRPPRLPRPRPRPCIQPRP,-0.185
8,RRIRNRPPRLPRPRPRPLFAPRP,0.0932
9,RRIRYRPPRLPRPRPRPPYRPRP,-0.714
10,RRIRCRPPRLPRPRPRPFKVPRP,-0.0177
11,RRIRKRPPRLPRPRPRPQPDPRP,0.459
12,RRIRVRPPRLPRPRPRPHPAPRP,0.296
13,RRIRDRPPRLPRPRPRPYLFPRP,1.15
14,RRIRPRPPRLPRPRPRPQFHPRP,-0.3
15,RRIRRRPPRLPRPRPRPEECPRP,0.00164
16,RRIRARPPRLPRPRPRPSSGPRP,0.412
17,RRIRIRPPRLPRPRPRPYDGPRP,-0.0104
18,RRIRERPPRLPRPRPRPLNKPRP,-0.47
19,RRIRERPPRLPRPRPRPNAEPRP,0.103
20,RRIRLRPPRLPRPRPRPVKVPRP,-0.0103
21,RRIRLRPPRLPRPRPRPTWFPRP,0.0207
22,RRIRKRPPRLPRPRPRPMDVPRP,0.0608

row,Sequence,shrunken log2 fold change
1,RRIRWRPPRLPRPRPRPCAYPRP,-0.129
2,RRIRNRPPRLPRPRPRPSKNPRP,-0.267
3,RRIRLRPPRLPRPRPRPNAHPRP,-0.154
4,RRIRRRPPRLPRPRPRPYTIPRP,-0.566
5,RRIRYRPPRLPRPRPRPYRNPRP,-0.0228
6,RRIRWRPPRLPRPRPRPTQSPRP,0.472
7,RRIRARPPRLPRPRPRPSISPRP,0.0682
8,RRIRHRPPRLPRPRPRPENHPRP,-0.235
9,RRIRGRPPRLPRPRPRPGCPPRP,0.806
10,RRIRLRPPRLPRPRPRPELIPRP,-0.0413
11,RRIRWRPPRLPRPRPRPSNSPRP,-0.498
12,RRIRRRPPRLPRPRPRPFMGPRP,-0.366
13,RRIRSRPPRLPRPRPRPAELPRP,0.0682
14,RRIRIRPPRLPRPRPRPSKFPRP,-0.245
15,RRIRKRPPRLPRPRPRPNRRPRP,0.0646
16,RRIRERPPRLPRPRPRPRWRPRP,0.706
17,RRIRCRPPRLPRPRPRPVDWPRP,1.33
18,RRIRLRPPRLPRPRPRPRIVPRP,-0.175
19,RRIRDRPPRLPRPRPRPMNHPRP,-0.513
20,RRIRARPPRLPRPRPRPYRAPRP,-0.141
21,RRIRCRPPRLPRPRPRPCNIPRP,-0.3
22,RRIRVRPPRLPRPRPRPWRQPRP,0.2

row,Sequence,shrunken log2 fold change
1,RRIRVRPPRLPRPRPRPYMWPRP,-0.48
2,RRIRCRPPRLPRPRPRPWREPRP,0.13
3,RRIRERPPRLPRPRPRPPHPPRP,-0.0298
4,RRIRQRPPRLPRPRPRPYSGPRP,-0.126
5,RRIRTRPPRLPRPRPRPWDKPRP,-0.0249
6,RRIRPRPPRLPRPRPRPFQWPRP,-0.0697
7,RRIRERPPRLPRPRPRPHWRPRP,0.198
8,RRIRHRPPRLPRPRPRPMGPPRP,0.0818
9,RRIRVRPPRLPRPRPRPKIMPRP,-0.193
10,RRIRNRPPRLPRPRPRPWKNPRP,0.175
11,RRIRFRPPRLPRPRPRPRCMPRP,-0.124
12,RRIRYRPPRLPRPRPRPEDAPRP,-0.0333
13,RRIRWRPPRLPRPRPRPLYYPRP,-0.762
14,RRIRPRPPRLPRPRPRPHHRPRP,-0.118
15,RRIRERPPRLPRPRPRPGAVPRP,1.45
16,RRIRNRPPRLPRPRPRPSIMPRP,-0.611
17,RRIRPRPPRLPRPRPRPFCSPRP,-0.186
18,RRIRARPPRLPRPRPRPHSQPRP,0.0561
19,RRIRTRPPRLPRPRPRPAGRPRP,0.352
20,RRIRHRPPRLPRPRPRPCAHPRP,0.0671
21,RRIRRRPPRLPRPRPRPQRHPRP,-0.0855
22,RRIRLRPPRLPRPRPRPEWLPRP,0.315

row,Sequence,shrunken log2 fold change
1,RRIRTRPPRLPRPRPRPVQPPRP,0.238
2,RRIRGRPPRLPRPRPRPVLNPRP,0.469
3,RRIRQRPPRLPRPRPRPGMHPRP,-0.0509
4,RRIRTRPPRLPRPRPRPFMQPRP,-0.0497
5,RRIRERPPRLPRPRPRPCEAPRP,-0.041
6,RRIRARPPRLPRPRPRPDGNPRP,-0.0344
7,RRIRHRPPRLPRPRPRPLKEPRP,-0.0179
8,RRIRHRPPRLPRPRPRPMQQPRP,-0.174
9,RRIRMRPPRLPRPRPRPCSVPRP,-0.0402
10,RRIRCRPPRLPRPRPRPKEIPRP,0.0368
11,RRIRPRPPRLPRPRPRPMVRPRP,-0.0349
12,RRIRNRPPRLPRPRPRPLLQPRP,-0.137
13,RRIRNRPPRLPRPRPRPSGYPRP,0.00359
14,RRIRIRPPRLPRPRPRPTALPRP,0.0424
15,RRIRPRPPRLPRPRPRPAPLPRP,0.407
16,RRIRARPPRLPRPRPRPVNSPRP,-0.0786
17,RRIRSRPPRLPRPRPRPNRWPRP,-0.0554
18,RRIRRRPPRLPRPRPRPKTEPRP,0.452
19,RRIRARPPRLPRPRPRPWWCPRP,-0.0725
20,RRIRIRPPRLPRPRPRPIRTPRP,-0.288
21,RRIRVRPPRLPRPRPRPTDPPRP,0.328

# Source: the supplement of paper PMC9112550, “Optimization of the antimicrobial peptide Bac7 by deep mutational scanning” (BMC Biology, 2022)
